Experimental data published in US20100022453A1.

Columns and labels:
[1] = target: rat NgR1 (Nogo-66 receptor), full-length, expressed on cells (rat) (UniProt Q99M75); test: cell-based or functional assay
[2] = target: mouse NgR1, endogenous in acute hippocampal slices (mouse) (UniProt Q99PI8); test: cell-based or functional assay
mouse NgR1, endogenous in acute hippocampal slices (mouse), sequence (Q99PI8 27-447): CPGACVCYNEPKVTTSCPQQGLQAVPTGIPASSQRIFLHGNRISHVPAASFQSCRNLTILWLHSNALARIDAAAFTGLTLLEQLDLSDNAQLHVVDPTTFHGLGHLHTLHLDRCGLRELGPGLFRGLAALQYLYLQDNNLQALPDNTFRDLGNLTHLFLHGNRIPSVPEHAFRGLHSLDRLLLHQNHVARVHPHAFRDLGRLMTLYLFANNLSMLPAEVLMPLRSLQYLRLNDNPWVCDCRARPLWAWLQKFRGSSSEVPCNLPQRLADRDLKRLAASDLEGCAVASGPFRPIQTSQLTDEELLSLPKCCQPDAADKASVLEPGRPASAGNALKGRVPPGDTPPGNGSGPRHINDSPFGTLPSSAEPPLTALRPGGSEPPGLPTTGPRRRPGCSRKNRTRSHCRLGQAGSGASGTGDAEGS

rat NgR1 (Nogo-66 receptor), full-length, expressed on cells (rat), sequence (Q99M75 27-447 limits assumed): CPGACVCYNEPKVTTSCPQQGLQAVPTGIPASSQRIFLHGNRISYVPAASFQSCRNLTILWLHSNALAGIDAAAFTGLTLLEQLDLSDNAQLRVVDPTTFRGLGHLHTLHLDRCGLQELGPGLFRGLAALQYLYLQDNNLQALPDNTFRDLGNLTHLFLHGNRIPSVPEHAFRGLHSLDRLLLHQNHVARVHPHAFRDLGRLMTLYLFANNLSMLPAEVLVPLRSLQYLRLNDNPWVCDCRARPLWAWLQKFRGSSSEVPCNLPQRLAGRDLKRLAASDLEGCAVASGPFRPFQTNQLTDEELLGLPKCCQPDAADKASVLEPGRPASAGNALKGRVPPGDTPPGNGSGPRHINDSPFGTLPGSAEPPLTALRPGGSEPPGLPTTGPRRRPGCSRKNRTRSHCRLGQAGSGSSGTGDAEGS

percentage of cells with processes longer than two cell bodies in diameter, PC12^NgR1 line NgR1-1, 25 ng/ml FGF2 [1]: 5.6% | percentage of cells with processes longer than two cell bodies in diameter, PC12^NgR1 line NgR1-2, 25 ng/ml FGF2 [1]: 7.2% | percentage of cells with processes longer than two cell bodies in diameter, control PC12 cells (very low endogenous NgR1), 25 ng/ml FGF2 [1]: 19.8% | HFS-induced LTP at Schaffer collateral-CA1 synapses, mean fEPSP % of baseline, NgR1 null slices with FGF2 (10 µg/ml) (% of baseline) [2]: 165 | HFS-induced LTP at Schaffer collateral-CA1 synapses, mean fEPSP % of baseline, wild-type slices with FGF2 (10 µg/ml) (% of baseline) [2]: 139
Substance: FGF2 (Peprotech), unlabeled (ligand)
